Laboratory results from patent US20260217814 (published 2026).
Read-outs that look alike come from different tables or passages of the source.

T1: human IL-17A (human)
T1 chain: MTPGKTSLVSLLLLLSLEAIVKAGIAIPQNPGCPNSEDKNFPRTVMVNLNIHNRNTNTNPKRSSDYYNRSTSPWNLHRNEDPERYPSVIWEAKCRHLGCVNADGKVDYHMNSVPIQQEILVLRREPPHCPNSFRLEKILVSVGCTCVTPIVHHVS

T2: cynomolgus IL-17A (cynomolgus)
T2 chain: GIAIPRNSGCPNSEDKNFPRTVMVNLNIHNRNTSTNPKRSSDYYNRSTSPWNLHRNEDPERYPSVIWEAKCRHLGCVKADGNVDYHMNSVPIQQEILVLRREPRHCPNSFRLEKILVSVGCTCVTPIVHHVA

T3: IL-17E (human)
T3 chain: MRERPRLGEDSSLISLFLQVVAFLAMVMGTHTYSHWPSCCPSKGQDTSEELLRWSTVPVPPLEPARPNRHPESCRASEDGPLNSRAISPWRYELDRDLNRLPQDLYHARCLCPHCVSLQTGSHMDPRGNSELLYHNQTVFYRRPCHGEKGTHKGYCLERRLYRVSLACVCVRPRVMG

T4: IL-17C (human)
T4 chain: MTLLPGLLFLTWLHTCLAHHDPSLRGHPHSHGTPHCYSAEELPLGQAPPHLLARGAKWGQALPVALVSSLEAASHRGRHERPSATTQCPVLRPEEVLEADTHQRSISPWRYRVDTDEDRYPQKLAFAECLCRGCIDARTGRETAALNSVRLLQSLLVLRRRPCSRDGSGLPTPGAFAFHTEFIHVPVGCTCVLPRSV

T5: IL-17B (human)
T5 chain: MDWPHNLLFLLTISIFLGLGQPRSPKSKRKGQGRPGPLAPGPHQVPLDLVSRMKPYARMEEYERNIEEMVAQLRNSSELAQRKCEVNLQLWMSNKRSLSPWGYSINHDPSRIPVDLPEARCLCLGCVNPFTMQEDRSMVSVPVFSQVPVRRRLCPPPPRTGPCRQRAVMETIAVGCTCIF

T6: IL-17D (human)
T6 chain: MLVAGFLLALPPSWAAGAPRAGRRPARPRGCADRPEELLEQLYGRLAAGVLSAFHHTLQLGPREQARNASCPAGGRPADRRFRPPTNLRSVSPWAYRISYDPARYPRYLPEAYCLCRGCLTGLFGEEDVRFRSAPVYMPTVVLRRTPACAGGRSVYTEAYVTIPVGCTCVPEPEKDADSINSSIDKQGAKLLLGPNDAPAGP

T7: IL-17F (human)
T7 chain: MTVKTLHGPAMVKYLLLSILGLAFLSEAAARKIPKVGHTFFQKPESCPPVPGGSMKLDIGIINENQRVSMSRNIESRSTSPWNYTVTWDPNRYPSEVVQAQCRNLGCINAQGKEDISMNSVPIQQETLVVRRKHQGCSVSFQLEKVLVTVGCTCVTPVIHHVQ

T8: cynomolgus serum albumin (cynomolgus)
T8 chain: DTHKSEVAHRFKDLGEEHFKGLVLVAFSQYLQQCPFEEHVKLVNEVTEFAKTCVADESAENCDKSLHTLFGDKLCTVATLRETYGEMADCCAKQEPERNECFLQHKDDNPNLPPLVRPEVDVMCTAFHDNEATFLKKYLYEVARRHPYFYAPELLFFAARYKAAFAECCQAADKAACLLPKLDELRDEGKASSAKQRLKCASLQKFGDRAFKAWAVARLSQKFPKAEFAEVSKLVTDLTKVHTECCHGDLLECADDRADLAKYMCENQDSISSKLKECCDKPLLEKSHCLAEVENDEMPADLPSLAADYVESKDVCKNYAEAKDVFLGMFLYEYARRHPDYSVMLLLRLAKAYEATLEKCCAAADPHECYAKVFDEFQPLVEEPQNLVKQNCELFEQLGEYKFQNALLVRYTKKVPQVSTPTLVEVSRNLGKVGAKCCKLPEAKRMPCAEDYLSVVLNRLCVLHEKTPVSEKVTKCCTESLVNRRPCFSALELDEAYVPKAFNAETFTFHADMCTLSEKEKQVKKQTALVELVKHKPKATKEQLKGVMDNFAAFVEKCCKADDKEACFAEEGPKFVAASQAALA

B1: A1 (27-07-G02-sc01) (antibody)
chain: DIQMTQSPSSLSASVGDRVTITCQASQTINYWLAWYQQKPGKAPKLLIYRASTLASGVPSRFSGSGSGTDFTLTISSLQPEDFATYYCQNYYYSTSRSYGFGGGTKLTVLGGGGGSGGGGSGGGGSGGGGSEVQLVESGGGLVQPGGSLRLSCAASGFSFSSDYWMCWVRQAPGKGLEWIGCIYAGDVDDTDYASWARGRFTISRDNSKNTVYLQMNSLRAEDTAVYYCARVDGFDITYFDLWGQGTLVTVSS
B2: PRO571 (27-31-C04-sc01) (antibody)
chain: DIQMTQSPSSLSASVGDRVTITCQASESIYRYLSWYQQKPGKAPKLLIYLASTLTSGVPSRFSGSGSGTDFTLTISSLQPEDFATYYCQSNFGTASTTYYNTFGGGTKLTVLGGGGGSGGGGSGGGGSGGGGSEVQLVESGGGLVQPGGSLRLSCAASGFSFSGFYYMCWVRQAPGKGLEWIGCIDTGDGTTYYASWAKGRFTISRDNSKNTVYLQMNSLRAEDTAVYYCARDAAYGGYAYPAHGMDLWGQGTLVTVSS
B3: A5 HSA arm (antibody)
chain 1: EVQLVESGGGLVQPGGSLRLSCAASGIDFSTYGISWVRQAPGKGLEWIAYIYPDYGITDYASWVNGRFTISLDNAQNTVYLQMNSLRAEDTAVYYCARSGSYYSRGWGAHYFNLWGQGTLVTVSSASTKGPSVFPLAPSSKSTSGGTAALGCLVKDYFPEPVTVSWNSGALTSGVHTFPAVLQSSGLYSLSSVVTVPSSSLGTQTYICNVNHKPSNTKVDKKVEPKSCGGGGSGGGGSDIQMTQSPSSLSASVGDRVTITCQASQTINYWLAWYQQKPGKAPKLLIYRASTLASGVPSRFSGSGSGTDFTLTISSLQPEDFATYYCQNYYYSTSRSYGFGGGTKLTVLGGGGGSGGGGSGGGGSGGGGSEVQLVESGGGLVQPGGSLRLSCAASGFSFSSDYWMCWVRQAPGKGLEWIGCIYAGDVDDTDYASWARGRFTISRDNSKNTVYLQMNSLRAEDTAVYYCARVDGFDITYFDLWGQGTLVTVSS
chain 2: DIQMTQSPSSLSASVGDRVTINCQASESISSWLAWYQQKPGKRPKLLIYKASTLASGVPSRFSGSGSGTDYTLTISSLQPEDFATYYCQGYYLDSSVDDNVFGGGTKLTVLGRTRTVAAPSVFIFPPSDEQLKSGTASVVCLLNNFYPREAKVQWKVDNALQSGNSQESVTEQDSKDSTYSLSSTLTLSKADYEKHKVYACEVTHQGLSSPVTKSFNRGECGGGGSGGGGSDIQMTQSPSSLSASVGDRVTITCQSSESVYSNNQLSWYQQKPGQPPKLLIYDASDLASGVPSRFSGSGSGTDFTLTISSLQPEDFATYYCAGGFSSSSDTAFGGGTKLTVLGGGGGSGGGGSGGGGSGGGGSEVQLVESGGGLVQPGGSLRLSCAASGFSLSSNAMGWVRQAPGKGLEYIGIISVGGFTYYASWAKGRFTISRDNSKNTVYLQMNSLRAEDTATYFCARDRHGGDSSGAFYLWGQGTLVTVSS
B4: A5 IL-17A arm (antibody)
chain 1: B3 chain 1
chain 2: B3 chain 2

How the values were obtained:
[1] = target: T1, human IL-17A; assay: SPR, direct setup
[2] = target: T2, cynomolgus IL-17A; assay: SPR
[3] = target: T3, IL-17E; assay: competition ELISA
[4] = target: T4, IL-17C; assay: competition ELISA
[5] = target: T5, IL-17B; assay: competition ELISA
[6] = target: T6, IL-17D; assay: competition
[7] = target: T7, IL-17F; assay: competition ELISA
[8] = target: T1, human IL-17A; assay: SPR, capture setup
[9] = target: T9, human serum albumin (human, UniProt P02768); assay: SPR, pH 7.4
[10] = target: T9, human serum albumin; assay: SPR, pH 5.5
[11] = target: T8, cynomolgus serum albumin; assay: SPR, pH 5.5
[12] = target: T8, cynomolgus serum albumin; assay: SPR, pH 7.4
[13] = target: T1, human IL-17A; assay: SPR
[14] = target: T2, cynomolgus IL-17A; assay: SPR

| Binder | Kd [1] [nM] | Kd [2] [nM] | binding result [3] | binding result [4] | binding result [5] | binding result [6] | binding result [7] | Kd [8] [nM] | Kd [9] [nM] | Kd [10] [nM] | Kd [11] [nM] | Kd [12] [nM] | Kd [13] [nM] | Kd [14] [nM] |
| --- | --- | --- | --- | --- | --- | --- | --- | --- | --- | --- | --- | --- | --- | --- |
| B1 | 0.14 | 0.9 | no binding | no binding | no binding | no binding | no binding |  |  |  |  |  |  |  |
| B2 | 0.04 | 0.033 | no binding | no binding | no binding | no binding | no binding | 0.12 |  |  |  |  |  |  |
| B3 |  |  |  |  |  |  |  |  | 2.69 | 1.66 | 0.795 | 2.47 |  |  |
| B4 |  |  |  |  |  |  |  |  |  |  |  |  | 0.575 | 0.523 |
